{"source": "patent US20130059806A1", "key": {"[1]": {"molecular_target": "biotin-FLAG-tagged TR2 and TR4 (biotin-FLAG-TR2 and biotin-FLAG-TR4 co-expressed in BirA-expressing MEL cells) (UniProt Q505F1)", "sequence (Q505F1 whole entry, chain 1 of 2)": "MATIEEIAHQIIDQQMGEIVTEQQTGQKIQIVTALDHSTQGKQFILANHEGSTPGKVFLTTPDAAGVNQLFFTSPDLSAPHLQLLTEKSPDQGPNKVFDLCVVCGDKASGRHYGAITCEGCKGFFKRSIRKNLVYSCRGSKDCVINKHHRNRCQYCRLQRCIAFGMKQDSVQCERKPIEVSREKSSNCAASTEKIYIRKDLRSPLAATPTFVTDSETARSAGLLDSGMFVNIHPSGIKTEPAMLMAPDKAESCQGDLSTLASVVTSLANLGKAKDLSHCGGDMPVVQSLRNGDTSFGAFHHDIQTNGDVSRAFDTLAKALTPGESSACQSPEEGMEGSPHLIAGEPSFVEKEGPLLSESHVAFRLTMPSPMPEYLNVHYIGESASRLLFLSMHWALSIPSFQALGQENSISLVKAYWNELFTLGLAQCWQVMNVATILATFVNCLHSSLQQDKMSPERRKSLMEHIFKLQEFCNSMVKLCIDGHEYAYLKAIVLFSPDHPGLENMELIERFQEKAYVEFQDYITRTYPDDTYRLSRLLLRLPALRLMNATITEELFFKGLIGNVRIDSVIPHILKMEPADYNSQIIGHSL", "sequence (P49117 whole entry, chain 2 of 2, further chain)": "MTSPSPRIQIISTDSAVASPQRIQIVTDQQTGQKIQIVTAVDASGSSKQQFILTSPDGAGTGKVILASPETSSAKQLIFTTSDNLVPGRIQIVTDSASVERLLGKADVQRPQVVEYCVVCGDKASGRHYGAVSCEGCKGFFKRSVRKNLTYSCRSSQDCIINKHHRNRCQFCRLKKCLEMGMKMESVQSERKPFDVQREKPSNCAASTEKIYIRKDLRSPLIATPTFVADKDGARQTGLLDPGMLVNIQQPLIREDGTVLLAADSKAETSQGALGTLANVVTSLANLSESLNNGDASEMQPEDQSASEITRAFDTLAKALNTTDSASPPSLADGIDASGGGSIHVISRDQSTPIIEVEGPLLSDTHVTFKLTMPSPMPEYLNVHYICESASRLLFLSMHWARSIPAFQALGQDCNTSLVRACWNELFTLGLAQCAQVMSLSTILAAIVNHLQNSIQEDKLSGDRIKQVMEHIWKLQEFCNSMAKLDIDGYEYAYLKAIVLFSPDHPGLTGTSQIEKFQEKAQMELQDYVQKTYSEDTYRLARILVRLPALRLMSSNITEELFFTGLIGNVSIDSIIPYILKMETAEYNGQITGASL", "assay": "streptavidin purification of biotin-tagged TR2/TR4 from MEL nuclear extract, mass spectrometry, experiment #1"}, "[2]": {"molecular_target": "biotin-FLAG-tagged TR2 and TR4 (biotin-FLAG-TR2 and biotin-FLAG-TR4 co-expressed in BirA-expressing MEL cells) (UniProt Q505F1)", "assay": "streptavidin purification of biotin-tagged TR2/TR4 from MEL nuclear extract, mass spectrometry, experiment #3"}, "[3]": {"molecular_target": "biotin-FLAG-tagged TR2 and TR4 (biotin-FLAG-TR2 and biotin-FLAG-TR4 co-expressed in BirA-expressing MEL cells) (UniProt Q505F1)", "assay": "streptavidin purification of biotin-tagged TR2/TR4 from MEL nuclear extract, mass spectrometry, experiment #2"}}}
{"substance": "BRG1 (from UniProt Q3TKT4 1-1613) (enzyme)", "values": [{"measurement": "% coverage", "setting": "[1]", "value": 1.4, "unit": "%"}, {"measurement": "total peptides", "setting": "[1]", "value": 2, "unit": "peptides"}, {"measurement": "% coverage", "setting": "[2]", "value": 0.8, "unit": "%"}, {"measurement": "total peptides", "setting": "[2]", "value": 1, "unit": "peptides"}]}
{"substance": "CAPER (from UniProt Q8VH51 2-530)", "values": [{"measurement": "% coverage", "setting": "[3]", "value": 4.9, "unit": "%"}, {"measurement": "total peptides", "setting": "[3]", "value": 2, "unit": "peptides"}, {"measurement": "% coverage", "setting": "[2]", "value": 2.6, "unit": "%"}, {"measurement": "total peptides", "setting": "[2]", "value": 1, "unit": "peptides"}]}
{"substance": "DNA methyltransferase 1 (DNMT1) (from UniProt P13864 1-1620) (enzyme)", "values": [{"measurement": "% coverage", "setting": "[1]", "value": 13.5, "unit": "%"}, {"measurement": "total peptides", "setting": "[1]", "value": 35, "unit": "peptides"}, {"measurement": "% coverage", "setting": "[3]", "value": 10.1, "unit": "%"}, {"measurement": "total peptides", "setting": "[3]", "value": 14, "unit": "peptides"}, {"measurement": "% coverage", "setting": "[2]", "value": 10.4, "unit": "%"}, {"measurement": "total peptides", "setting": "[2]", "value": 15, "unit": "peptides"}]}
{"substance": "HCF1 (Host Cell Factor 1) (from UniProt Q61191 2-2045)", "values": [{"measurement": "% coverage", "setting": "[1]", "value": 2.5, "unit": "%"}, {"measurement": "total peptides", "setting": "[1]", "value": 4, "unit": "peptides"}, {"measurement": "% coverage", "setting": "[3]", "value": 1.4, "unit": "%"}, {"measurement": "total peptides", "setting": "[3]", "value": 2, "unit": "peptides"}, {"measurement": "% coverage", "setting": "[2]", "value": 0.8, "unit": "%"}, {"measurement": "total peptides", "setting": "[2]", "value": 1, "unit": "peptides"}]}
{"substance": "HDAC1 (from UniProt O09106 1-482) (enzyme)", "values": [{"measurement": "% coverage", "setting": "[1]", "value": 4.4, "unit": "%"}, {"measurement": "total peptides", "setting": "[1]", "value": 2, "unit": "peptides"}, {"measurement": "% coverage", "setting": "[2]", "value": 8.9, "unit": "%"}, {"measurement": "total peptides", "setting": "[2]", "value": 3, "unit": "peptides"}]}
{"substance": "HDAC2 (from UniProt P70288 1-488) (enzyme)", "values": [{"measurement": "% coverage", "setting": "[2]", "value": 4.9, "unit": "%"}, {"measurement": "total peptides", "setting": "[2]", "value": 2, "unit": "peptides"}]}
{"substance": "MTA1 (from UniProt Q8K4B0 1-715)", "values": [{"measurement": "% coverage", "setting": "[1]", "value": 8.7, "unit": "%"}, {"measurement": "total peptides", "setting": "[1]", "value": 7, "unit": "peptides"}, {"measurement": "% coverage", "setting": "[3]", "value": 1.7, "unit": "%"}, {"measurement": "total peptides", "setting": "[3]", "value": 1, "unit": "peptides"}, {"measurement": "% coverage", "setting": "[2]", "value": 1.8, "unit": "%"}, {"measurement": "total peptides", "setting": "[2]", "value": 1, "unit": "peptides"}]}
{"substance": "MTA2 (from UniProt Q9R190 1-668)", "values": [{"measurement": "% coverage", "setting": "[1]", "value": 2.8, "unit": "%"}, {"measurement": "total peptides", "setting": "[1]", "value": 2, "unit": "peptides"}]}
{"substance": "Mi2β (from UniProt Q6PDQ2 1-1915) (enzyme)", "values": [{"measurement": "% coverage", "setting": "[1]", "value": 1.1, "unit": "%"}, {"measurement": "total peptides", "setting": "[1]", "value": 1, "unit": "peptides"}, {"measurement": "% coverage", "setting": "[3]", "value": 5.3, "unit": "%"}, {"measurement": "total peptides", "setting": "[3]", "value": 4, "unit": "peptides"}, {"measurement": "% coverage", "setting": "[2]", "value": 4.4, "unit": "%"}, {"measurement": "total peptides", "setting": "[2]", "value": 6, "unit": "peptides"}]}
{"substance": "NonO (from UniProt Q99K48 1-473)", "values": [{"measurement": "% coverage", "setting": "[1]", "value": 7.8, "unit": "%"}, {"measurement": "total peptides", "setting": "[1]", "value": 10, "unit": "peptides"}, {"measurement": "% coverage", "setting": "[3]", "value": 17.8, "unit": "%"}, {"measurement": "total peptides", "setting": "[3]", "value": 9, "unit": "peptides"}, {"measurement": "% coverage", "setting": "[2]", "value": 11, "unit": "%"}, {"measurement": "total peptides", "setting": "[2]", "value": 7, "unit": "peptides"}]}
{"substance": "PSPC1 (from UniProt Q8R326 1-523)", "values": [{"measurement": "% coverage", "setting": "[1]", "value": 3.3, "unit": "%"}, {"measurement": "total peptides", "setting": "[1]", "value": 1, "unit": "peptides"}, {"measurement": "% coverage", "setting": "[3]", "value": 7.8, "unit": "%"}, {"measurement": "total peptides", "setting": "[3]", "value": 3, "unit": "peptides"}, {"measurement": "% coverage", "setting": "[2]", "value": 4.6, "unit": "%"}, {"measurement": "total peptides", "setting": "[2]", "value": 2, "unit": "peptides"}]}
{"substance": "RbAp46 (from UniProt Q60973 2-425)", "values": [{"measurement": "% coverage", "setting": "[1]", "value": 2, "unit": "%"}, {"measurement": "total peptides", "setting": "[1]", "value": 2, "unit": "peptides"}, {"measurement": "% coverage", "setting": "[3]", "value": 6.8, "unit": "%"}, {"measurement": "total peptides", "setting": "[3]", "value": 3, "unit": "peptides"}]}
{"substance": "RbAp48 (from UniProt Q60972 2-425)", "values": [{"measurement": "% coverage", "setting": "[1]", "value": 2, "unit": "%"}, {"measurement": "total peptides", "setting": "[1]", "value": 2, "unit": "peptides"}, {"measurement": "% coverage", "setting": "[3]", "value": 6.3, "unit": "%"}, {"measurement": "total peptides", "setting": "[3]", "value": 3, "unit": "peptides"}, {"measurement": "% coverage", "setting": "[2]", "value": 1.9, "unit": "%"}, {"measurement": "total peptides", "setting": "[2]", "value": 1, "unit": "peptides"}]}
{"substance": "SFPQ (from UniProt Q8VIJ6 1-699)", "values": [{"measurement": "% coverage", "setting": "[1]", "value": 15.3, "unit": "%"}, {"measurement": "total peptides", "setting": "[1]", "value": 12, "unit": "peptides"}, {"measurement": "% coverage", "setting": "[3]", "value": 15.9, "unit": "%"}, {"measurement": "total peptides", "setting": "[3]", "value": 8, "unit": "peptides"}, {"measurement": "% coverage", "setting": "[2]", "value": 18.2, "unit": "%"}, {"measurement": "total peptides", "setting": "[2]", "value": 10, "unit": "peptides"}]}
{"substance": "Sin3A (from UniProt Q60520 1-1274)", "values": [{"measurement": "% coverage", "setting": "[2]", "value": 1.1, "unit": "%"}, {"measurement": "total peptides", "setting": "[2]", "value": 1, "unit": "peptides"}]}
{"substance": "transcriptional intermediary factor (TIF)-1beta (from UniProt Q62318 2-834)", "values": [{"measurement": "% coverage", "setting": "[1]", "value": 12.7, "unit": "%"}, {"measurement": "total peptides", "setting": "[1]", "value": 16, "unit": "peptides"}, {"measurement": "% coverage", "setting": "[3]", "value": 9, "unit": "%"}, {"measurement": "total peptides", "setting": "[3]", "value": 6, "unit": "peptides"}, {"measurement": "% coverage", "setting": "[2]", "value": 1.8, "unit": "%"}, {"measurement": "total peptides", "setting": "[2]", "value": 1, "unit": "peptides"}]}
